Source: the DeepSol protein solubility set

Assay: soluble on expression in E. coli; label from the status in PepcDB or PDB records

Sequence | soluble on expression in E. coli
MGSDKIHHHHHHMEEGSAGMGMSQNNSTLVAPQPKGIIDPATGKPVGSNDAYFTEINDELADKGFLVTSTDELITWARTGSLMWMQFGLACCAVEGLMQASGPRYDMERFGVAPRASPRQSDVMIVAGTLTNKMAPALRKVYDQMPEPRYVISMGSCANGGGYYHYSYAVVRGCDRVVPVDIYVPGCPPTAEALLYGVLLLQKKIRRTGTIER | not soluble
MARRISEPAREIDIIHETDVLVVGSGPGGLPAALAAARAGAEVTLVERFGCFGGNLTVVGVEGMHWYRHEQTIESNGIAREFEEKAKEMGAAVPESQSLSHEIDSEGFKLVADRMVLDEPNIRPMLHRFFVAPLMEGDTIIGIVTESKSGREAILARRVIDATGDADVVTRAGAPVYKTPAEQMMAASVMFHLAGVDKQRFMDGIKADPQTYRDWGGGGEWNIETSGKEDDMFSPFLKKPFQQAIRDGLIPPHLNTIAGTWGAVHDTGELTYMNLIHLDGCDGTDPDSLTTYEIEGRRQTMLAIEALRRYTPGCENIRLRNFGMSIGIRDTRKVDCLYNMTETDVREQGRFEDSIGIFPEFIDGYGILILPTTGRYFQMPYRNLLPRGVKNLLVAGRITGGDRISHAATRNMACCAVTGQGAGIAAALSVKSNRPLDEIDPLLIQKELERQGGRHHLEHHHHHH | not soluble
MGSDKIHHHHHHMSLLINLSFAPLQPTGWLTYSLNLLPHIKYLGVNVLSPREIPEVKVYQSPTNITTECGIKGHFQRLMWVQFKLPSFYKKLKSQLLFSPIPEVPLFSRCRSIVTIHDLIPLRFPQEFSAAQLFYCRNYLPAVIKQSEHIICNSLSTAHDIQNFLGVPEKKITITSLAIDTENFKFLDLPKKNYFLYYGRHNIYKNLNRIIAAFAALPNKDYELWLAGPNDARYTPTLQAQVEELGITHRVKFLDYVSYSELPVIINQAIALVFPSLWEGFGFPVLEALACGTPVITSNLSSLPEVAGDAAILINPYNTAEITDAMQNIANDVKLQSHLSTQGIARANQFSWERTGKATSEVLSRYL | not soluble
MGSDKIHHHHHHMEKENIMTVDIEDFKKSQHILDYIDDDFAIVNSLDGIPYSNDTVRLNCFLIAVCAEGCIQLDINYRTYQLQAGDLLLGLPNTLISRTMLSPKYKIRLAGFSTRFLQRIIKMEKKTWNTAAHIHNNPVKSISEGGDDPVFRFYRDLIVAKINDEPHYYHREVMQHLFSALFCEMLGQLHKEIDAPDKGDSPKEGIKQADYTLRKFVELLSKDKGMHRSVSYYADALCYTPKHFSKVIKQACGRTPLDLINETTIEHIKYRLKRSDKSVKEIAEEFNFPNQSFFGKYVKMHLGTSPANYRNREDE | not soluble
MSDEKIINQPQDVVSEMLDGLTYAYGDLIEKVPDFEIIQRKSPKSGKVALVSGGGSGHEPAHAGFVGEGMLSAAVCGAIFTSPTPDQIYEAIKSADEGAGVLLIIKNYLGDVMNFEMAREMAEMEEIKVEQIIVDDDIAVENSLYTQGRRGVAGTVLVHKILGAAAHQEASLDEIKDLADKVVKNIKTIGLALSAATVPEVGKPGFVLDDNEIEYGVGIHSEPGYRREKMKTSYELATELVGKLKEEFKFEAGQKYGILVNGMGATPLMEQFIFMNDVAKLLTEENIEILFKKVGNYMTSIDMAGLSLTMIKLEDDQWLKNLNEDVKTISWG | soluble
MKPYLEEKLEGARKSVPGFALEELKQKIISSPIQFGKSDIDDLVSNLLKRYEQTKENSLIGKIDSIFKEISDIEKVMSAKQPEPAQQQAPVEKPKKKAKLEVIGDDVVSIMVSLRWLEFLLDNYGPENTLDVLDYYESLGWISATVKEQMMKYAKMTGVMNPAQEYKIKPSIQDHIINMLFIEKLRGEEINRDLIEALEREFRTIRKGVDELYGI | soluble
MGSDKIHHHHHHMEVLSGECRSASSVASAGGGHAESWARYASMDRKGESSMAAQQPTILATSGGYKAGRRSRLEFDALLHHAVELSGVTGRAPRVTHIGTAAGDQRSFNAELDQAAKIAGFDFSHLNLFTMPSIDDPEAHLLEQDVVWVNGGSVVNLLAVWRAHGLDGILRRVWEAGVVLAGVSAGSICWFQGGTTDSYGPQLRPVTNALGFLPYANGVHYDSEVQRRPLVHRLVADGTLGETHCTDDGAGLVYFGTHLAEAVTEVRGKAAYRVTRHIQGGGAATAAEERLEARFLG | not soluble
NLPDVQASKPSIAINLTRVGVTNMKKLVEIKRKDKRPIVLISTFDVFVDLPSDRKGANLSRNFEAVDEVLEKVLSTPVYEIEQLCSDIAHNLLGRHEYANQAEVRMKSEYMIRRASPSTGIKCQEVVNIFAEASAVRGNGDRDYFDVKKLIGAEVVGMTACPCAQEIMRDKAATELANLGVERDKIIKFLEKVPMATHNQRGRGIISIKVAHDFDVSLESIIKIIERSMSSSVYEVLKRSDEKVVVETAHMNPKFVEDCVRAMADNVVKEFPNLPDNAVITIKQTNEESI | not soluble
MTRSEKTRHFGNQNYEKLRKICIKKKQPFVDTLFPPTNQSLFLEQRQSSDIVWKRPGELHPDPHLFVEGASPNDVTQGILGNCWFVSACSALTHNFKLLAQVIPDADDQEWSTKHAYAGIFRFRFWRFGKWVEVVIDDLLPTRDGKLLFARSKTPNEFWSALLEKAFAKLYGCYENLVGGHLSDALQDVSGGVAETLHVRKFLKDDPNDTELKLFNDLKTAFDKGALVVAAIAARTKEEIEESLDCGLVKGHAYAVSAVCTIDVTNPNERSFTSFIMGSKRKQNLIRLQNPWGEKEWNGAWSDDSPEWQNVSASQLSTMGVQPANSDSDDGDFWMPWESFVHYFTDISLCQLFNTSVFSFSRSYDEQIVFSEWTTNGKKSGAPDDRAGGCHNFKATFCNNPQYIFDIPSPNCSVMFALIQNDPSEGLKKREPFVTIGMHVMKVENNRQYRVHTAMHPIAISDYASGRSVYLHLQSLPRGRYLLIPTTFAPKEQTLFMLRVYSDEHIHFSPLTKHAPKLGLLKCKSAQSVTRLTIHGVDFNSASTGTHNVYAILKDSRKSFRTKTLSGVKSIQWDEQFLFHKSKNRQQYKIEVWEDRKMARDHLLAQSVIIALIDNENRDTTLQLTDPRGTVIGTVSVTVSAFDDPMYL | not soluble
MAPAKSPRAWQRMLSGRRLDLLDPSPLDVEIADIAHGLARVARWNGQTRGDHAFTVAQHCLIVETIFCRMCPGATPDEMQMALLHDAPEYVIGDMISPFKSVVGGGYKTVEKRLEAAVHLRFGLPPHASRELKDRIKKADTVAAFFEATELAGFSTAEAQKFFGLPRGITRDMFDIIPLPSTEAQRLFIARFEAIETLRVTRTGGAV | soluble
MGSDKIHHHHHHMLESTKQFLKKYNINDRVLKLYETAMNDIQNQFKILDDIREFNQLKVLNAFQEERISEAHFTNSSGYGYGDIGRDSLDAVYARVFNTESALVRPHFVNGTHALGAALFGNLRPGNTMLSVCGEPYDTLHDVIGITENSNMGSLKEFGINYKQVDLKEDGKPNLEEIEKVLKEDESITLVHIQRSTGYGWRRALLIEDIKSIVDCVKNIRKDIICFVDNCYGEFMDTKEPTDVGADLIAGSLIKNIGGGIAPTGGYLAGTKDCIEKTSYRLTVPGIGGECGSTFGVVRSMYQGLFLAPHISMEALKGAILCSRIMELAGFEVMPKYDEKRSDIIQSIKFNDKDKLIEFCKGIQTGSPIDSFVSCEPWDMPGYTDQVIMAAGAFIQGSSIELSADAPIREPYIAYLQGGLTFDHAKIGILIALSRIVK | not soluble
GMKTNEVLETIKARRSVRAYDRKQIPADDLNAILEAGAYAPSGMHYETWHFTAVCNTVKLEELNERIKGAFAKSDDKHLRERGHSETYCCYYHAPTLVIVSNEPKQWWAGMDCACAIENMFLAATSLGIASCWINQLGTTCDDPEVRAYLTSLGVPENHKVYGCVALGYKAEGALLKEKTVKAGTITIVE | soluble
MRRAFLVNSDKCIGCRGCAMACKSFNQLEPDRFWRYVYPLDKDIYPHEERAFYSLACNHCEHPACVAACPVEAYTKREDGVVVHNPERCIGCKNCIRNCPYGAPRFNEETRKAEKCSMCYERLDIGMNPACVNACPVGALSIIDLDADPVPDNAVQYPPGFPHMPQLNPGTRFILARQPKQPEDK | not soluble
MEQEAERRRQPQIKQEPESEEEEEEKQEKEEKREEPVEEEEEPEQKPCLKPTLRPISSAPSVSSASGNATPNTPGDESPCGIIIPHENSPDQQQPEEHRPKIGLSLKLGASNSPGQPNSVKRKKLPVDSVFNKFEDEDSDDVPRKRKLVPLDYGEDDKNATKGTVNTEEKRKHIKSLIEKIPTAKPELFAYPLDWSIVDSILMERRIRPWINKKIIEYIGEEEATLVDFVCSKVMAHSSPQSILDDVAMVLDEEAEVFIVKMWRLLIYETEAKKIGLVK | soluble
MGSDKIHHHHHHMDKFLYISMSGAKQNMNELALRANNLANANTDGFKSDMAQARSMQAFGEGLPTRVFAMVETPSANFRSGPIKSTGRDLDVAIKGDGWFAVQAQDGSEAYTRSGSLSFDSTGLLHNDRGNPVMGDAGPIVLPLPIEKVTISQDGIISVRPQGATTEVVEEVGRLKLVNPGNAQMMRGEDGLFRLVSGDPAPADPSVSVESGAVEGSNVNSVDEMVSLIDLQRQFELQVKMMKTAEENDRASSSLMRIS | not soluble
MSLIIPEKFQHIHRVMNTNIDGNRKVPYALTAIKGVGRRFAFVCCRKADVDVNKRAGELTEEDFDKIVTIMQNPSQYKIPNWFLNRQKDIKDGKTGQLLSTAVDNKLREDLERMKKIRLHRGLRHYWGLRVRGQHTKTTGRKGRTVGVSKKKGG | not soluble
MDHVHKSTTTDEDERNSGRAIDRHNPIIKDGRRSFADDFIKLPTSAEDGEMSNKKLEIYKGRRSITGRRSTGGGGGGGAAALLKLITNDIGLARKSFSCVARPACDLIKTPVGSTRYLLGSDPDSITGSVDQDPAKTVEAEAPAGEDKTLTEKKTTCGDTDQVSCFVVSIMSGINVNKW | not soluble
NYKREIKQVENYLSARRESGHFIGKENIDIYYEKYVIPNSKNSIVISHGFRESMVKYNETIYYFLKNGYSVYGLEHRGHARSGRLGKDSTQTSVDNFDYYVDDFKKYVDTIVEPDNRGKNLFLYAHSMGGAIGGLFLERYPKYFKAAVLSSPMFEVDTGRYPEFLSRAVASVFNFVNLGDTYAPGHHEYSCESDFENSCTTSNIRYDYYLDKTNKSRKIENGGASFKWVKESLKATDEVTDGKNASKVTIPVLLFQAENDDIVRPGGQDKFAKEAKKCKLIVIKNSKHEIYREKDSIMVPYFNKVFTFLNNNK | not soluble
ESLDEVVVVGMGTQRKVSVVGAVTSVNPAAISAPSTSVANMLGGVVPGIIAVDRSGEPGQDVSEFWIRGISTFGANQSALVLIDGIEGNLNDLDPSDIESFSILKDASATAVYGVRGANGVVLVTTRSGQEGR | not soluble
AHHHHHHGSDIKPGKITVQANPNMPEEIANLFRKQHYELVGRHSGVKLCHWLKKSLTEGRFCYKQKFYGIHSHRCLQMTPVLAWCTHNCIFCWRPMETFLGTEVPEPWDDPAFIVEESIKAQRKLLVGYKGNPKVDKKKFEEAWEPKHAAISLSGEPMLYPYMGDLVEEFHKRGFTTFIVTNGTVPESLREMIKDDKLPTQLYVSLTAPDIESYNKVNIPMIPDGWEKILEFLELMRDIPTRTVVRLTLVKGENMHNPEGYARLIMKARPMFVEAKAYMFVGFSRNRLTINNMPSHEDIREFAEALVKYLPGYHIEDEYEPSRVVLIMRDDVDPSGTGLEGRFIKH | not soluble
MQVSDFHFELPDELIARYPKAERTASRLLQLDGNSGQLVDGTFKDVLELVEPGDLLVFNNTRVIPARMFGRKASGGKLEVLVERMLDEHTILAHVRSSKPPKPGTELYLGENDEFHAVMQARHDALFEIRFTAETVVLDILNQIGHMPLPPYIDRPDEEADKERYQTVYNQKPGAVAAPTAGLHFDQALLEQIQAKGVELAYVTLHVGAGTFQPVRVENIHDHHMHAEYVEVPQEVVDAITATKARGGRVVAVGTTSVRSLESAAQDALQKGTELKPFFGDTEIFIFPGYQYQLVDCLITNFHLPESTLIMLVSAFAGYEHTMAAYEHAVKEQYRFFSYGDAMFIRKQMTKA | not soluble
